Earlier results in article PMC9406205.

Columns and labels:
[1] = biological target: GAPDH (Chlamydomonas reinhardtii) (UniProt P50362); assay: surface plasmon resonance
[2] = biological target: PRK (Chlamydomonas reinhardtii) (UniProt P19824); assay: surface plasmon resonance
Sequence of UniProt P19824 (P19824 32-375): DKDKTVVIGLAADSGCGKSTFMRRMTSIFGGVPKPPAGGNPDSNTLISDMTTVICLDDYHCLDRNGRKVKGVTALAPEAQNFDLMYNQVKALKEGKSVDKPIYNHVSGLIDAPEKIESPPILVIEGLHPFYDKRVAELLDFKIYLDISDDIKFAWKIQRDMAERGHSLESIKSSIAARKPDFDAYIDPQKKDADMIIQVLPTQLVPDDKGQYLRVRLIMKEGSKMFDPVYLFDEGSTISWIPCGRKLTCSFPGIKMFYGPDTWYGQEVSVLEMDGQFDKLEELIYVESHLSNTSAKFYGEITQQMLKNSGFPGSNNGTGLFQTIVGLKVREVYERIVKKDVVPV

Row | Substance | Kd [1] | Kd [2]
1 | CP12 (from UniProt A6Q0K5) | 0.00044 µM | –
2 | GAPDH-CP12 subcomplex (from UniProt P50362) | – | 0.06 µM
